Results: patent publication US20180296525A1, “TREATMENT OF AGE-RELATED MACULAR DEGENERATION AND OTHER EYE DISEASES WITH ONE OR MORE THERAPEUTIC AGENTS” (MacRegen, Inc., priority 2017, published 2018)

What was measured:
[1] = tested on: neutral lipids in and on the Bruch's membrane; assay: Oil red O staining of neutral lipids in and on the Bruch's membrane, geriatric macaques with age-related maculopathy; assay type: in vivo, Macaca fascicularis; conditions: injected eyes after 6 monthly intravitreal injections (total 625 μg), compared to eyes injected with placebo
Procedure: (§1) The macaque study was conducted according to accepted guidelines. […] One eye per animal received 6 monthly injections of the same escalating dosages of L-4F or scrambled L-4F (total of 625 μg) in a 50 μL volume. The second eye per animal was not injected and was just observed.
Clinical laboratory tests including serology, hemograms and liver enzymes were conducted, and ophthalmic examinations were also performed, including fundus photographs, optical coherence tomography (OCT), intraocular pressure testing and blood sampling. After 7 months, all animals were sacrificed and eyes were immediately prepared for histology. Histochemistry was performed with oil red O for neutral lipids and filipin for esterified cholesterol. […]
For staining with oil red O (ORO), specimens were treated with a 0.3% oil red O (Sigma-Aldrich Biochemie GmbH, Hamburg, Germany) solution (in 99% isopropanol) for 30 min at room temperature (RT), followed by immersion in a 60% isopropanol solution for 12 min. […] Image analysis was performed by grading the intensity of ORO staining (red color) of the Bruch's membrane (BrM) with scores ranging from 0 to 4, according to a qualitative evaluation assessed in four different regions in two separate slices from each eye (a total of 8 different regions from each eye). […]

[2] = Tolerability of intravitreal injections, macaque study; assay type: in vivo, Macaca fascicularis; conditions: 6 monthly intravitreal injections, all macaques; no significant adverse event or side effect
Procedure: as §1
Clinical laboratory tests including serology, hemograms and liver enzymes were conducted, and ophthalmic examinations were also performed, including fundus photographs, optical coherence tomography (OCT), intraocular pressure testing and blood sampling. After 7 months, all animals were sacrificed and eyes were immediately prepared for histology. Histochemistry was performed with oil red O for neutral lipids and filipin for esterified cholesterol. Immunohistochemistry was performed against complement factor D (CFD) and the membrane attack complex (MAC, C5b-9), both being markers of activation of the alternative complement pathway.
Circulating hsCRP, which is mainly produced in the liver, is a non-specific marker for systemic inflammation.

[3] = estimated; cited from earlier work
[4] = target: T1, complement factor D (CFD) (Homo sapiens, UniProt P00746); conditions: patients, monthly intravitreal 10 mg in one eye for 18 months, injected eye, compared to placebo; cited from earlier work
T1 construct: host or cells: Endogenous CFD in the eyes of AMD patients
T1 sequence (P00746 26-253): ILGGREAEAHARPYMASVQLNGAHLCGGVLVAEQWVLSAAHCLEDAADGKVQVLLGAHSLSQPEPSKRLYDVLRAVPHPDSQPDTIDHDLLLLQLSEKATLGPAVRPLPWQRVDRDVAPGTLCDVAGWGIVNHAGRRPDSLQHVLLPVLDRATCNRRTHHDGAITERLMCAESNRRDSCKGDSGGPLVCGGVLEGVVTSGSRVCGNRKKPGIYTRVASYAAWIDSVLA

[5] = without encapsulated cell technology; cited from earlier work

Molecule: Ac-DWFKAFYDKVAEKFKEAF-NH2 [L-4F, Ac-DWFKAFYDKVAEKFKEAF-NH2 acetate salt]
- reduction of lipid deposits from the BrM (oil red O staining) [1]: about 56%
- tolerability [2]: well tolerated

Molecule: aflibercept: soluble fusion protein containing extracellular domains of VEGFRs; anti-VEGF agent
- intravitreal half-life [3]: about 9.0 days

Molecule: bevacizumab: anti-VEGF antibody
- intravitreal half-life [3]: about 9.8 days

Molecule: lampalizumab: antigen-binding fragment (Fab) of a humanized monoclonal antibody targeting complement factor D (CFD)
- reduction in the rate of GA enlargement, and hence the area of GA [4]: about 20%

Molecule: ranibizumab: anti-VEGF antibody fragment
- intravitreal half-life [3]: about 7.1 days

B1: CNTF: ciliary neurotrophic factor, an endogenous neuroprotector (protein, UniProt P26441 1-200, looked up)
Ciliary neurotrophic factor: MAFTEHSPLTPHRRDLCSRSIWLARKIRSDLTALTESYVKHQGLNKNINLDSADGMPVASTDQWSELTEAERLQENLQAYRTFHVLLARLLEDQQVHFTPTEGDFHQAIHTLLLQVAAFAYQIEELMILLEYKIPRNEADGMPINVGDGGLFEKKLWGLKVLQELSQWTVRSIHDLRFISSHQTGIPARGSHYIANNKKM
- half-life of CNTF [5]: 1 to 3 min
